Source: ChEMBL document CHEMBL1147236, “Semiplenamides A-G, fatty acid amides from a Papua New Guinea collection of the marine cyanobacterium Lyngbya semiplena” (J Nat Prod, 2003)

Substrate: CCCCC/C=C\C/C=C\C/C=C\C/C=C\CCCC(=O)NCCO
Conditions: Mus musculus; N18TG2
Description: Activity at FAAH in mouse N18TG2 cell membranes

B1: Fatty-acid amide hydrolase 1 (Mus musculus), O08914 (protein)
chain: MVLSEVWTALSGLSGVCLACSLLSAAVVLRWTRSQTARGAVTRARQKQRAGLETMDKAVQRFRLQNPDLDSEALLALPLLQLVQKLQSGELSPEAVLFTYLGKAWEVNKGTNCVTSYLTDCETQLSQAPRQGLLYGVPVSLKECFSYKGHASTLGLSLNEGVTSESDCVVVQVLKLQGAVPFVHTNVPQSMLSYDCSNPLFGQTMNPWKPSKSPGGSSGGEGALIGSGGSPLGLGTDIGGSIRFPSAFCGICGLKPTGNRLSKSGLKSCVYGQTAVQLSVGPMARDVDSLALCMKALLCEDLFRLDSTIPPLPFREEIYRSSRPLRVGYYETDNYTMPTPAMRRAVMETKQSLEAAGHTLVPFLPNNIPYALEVLSAGGLFSDGGCSFLQNFKGDFVDPCLGDLVLVLKLPRWFKKLLSFLLKPLFPRLAAFLNSMCPRSAEKLWELQHEIEMYRQSVIAQWKAMNLDVVLTPMLGPALDLNTPGRATGAISYTVLYNCLDFPAGVVPVTTVTAEDDAQMEHYKGYFGDMWDNILKKGMKKGIGLPVAVQCVALPWQEELCLRFMREVERLMTPEKRPS
Km: 15 µM
